Reference: the supplement of paper PMC7877785
± gives the uncertainty stated by the source.

Assay: self-splicing fitness, log relative to wild type (ln ratio); higher = more splicing; Tetrahymena group I intron in knt gene, E. coli kanamycin selection, DiMSum; sequences stand for … in CUCUCU…GGAGGGAAAAGUUAUCAGGCAUGCACCUGGUAGCUAGUCUUUAAACCAAUAGAUUGCAUCGGUUUAAAAGGCAAGACCGUCAAAUUGCGGGAAAGGGGUCAACAGCCGUUCAGUACCAAGUCUCAGGGGAAACUUUGAGAUGGCCUUGCAAAGGGUAUGGUAAUAAGCUGACGGACAUGGUCCUAACCACGCAGCCAAGUCCUAAGUCAACAGAUCUUCUGUUGAUAUGGAUGCAGUUCACAGACUAAAUGUCGGUCGGGGAAGAUGUAUUCUUCUCAUAAGAUAUAGUCGGACCUCUCCUUAAUGGGAGCUAGCGGAUGAAGUGAUGCAACACUGGAGCCGCUGGGAACUAAUUUGUAUGCGAAAGUAUAUUGAUUAGUUUUGGAGUACUCGUGGUCG
Outline: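 Fitness was computed with DiMSum as the error-weighted combination of replicate fold changes, kanamycin versus none, each normalised to wild type. The library randomised all eight intron nucleotides of the P1ex region, with the intron placed in the knt kanamycin-resistance gene on pET-22b(+) in E. coli BL21(DE3). Six replicate transformations were grown overnight at 37°C or 30°C on LB agar with or without 25 μg/mL kanamycin, plus 100 μg/mL carbenicillin, 50 μM IPTG and 0.2% rhamnose. Pooled colonies were amplicon-sequenced on an Illumina HiSeq 2500.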

| Sequence | self-splicing fitness (ln) (30 °C) | self-splicing fitness (ln) (37 °C) |
| --- | --- | --- |
| GUAGAGCAAUAUUACGAAUU | -2.35 ± 0.21 | -2.01 ± 0.35 |
| GUAGAGCAAUAUUACGACAG | -3.49 ± 0.33 | -1.86 ± 0.3 |
| GUAGAGCAAUAUUACGACUC | 0.512 ± 0.23 | 0.484 ± 0.38 |
| GUAGAGCAAUAUUACGAGCU | -2.67 ± 0.22 | -1.66 ± 0.23 |
| GUAGAGCAAUAUUACGCCAU | -1.22 ± 0.39 | – |
| GUAGAGCAAUAUUACGCGCU | -2.69 ± 0.32 | -2.85 ± 0.32 |
| GUAGAGCAAUAUUACGCUAG | -0.754 ± 0.13 | 0.329 ± 0.21 |
| GUAGAGCAAUAUUACGCUCU | -3.31 ± 0.43 | – |
| GUAGAGCAAUAUUACGGACG | -2.8 ± 0.36 | -1 ± 0.3 |
| GUAGAGCAAUAUUACGGAGG | – | -1.69 ± 0.43 |
| GUAGAGCAAUAUUACGGGGG | -2.82 ± 0.26 | -2.22 ± 0.3 |
| GUAGAGCAAUAUUACGGUAG | -2.36 ± 0.12 | -1.24 ± 0.13 |
| GUAGAGCAAUAUUACGUAGA | -4.79 ± 0.41 | -1.55 ± 0.25 |
| GUAGAGCAAUAUUACGUGAA | -1.86 ± 0.17 | -1.87 ± 0.2 |
| GUAUAGCAAUAUUACGAAGU | -3.25 ± 0.21 | -1.81 ± 0.18 |
| GUAUAGCAAUAUUACGAAUC | -2.37 ± 0.22 | -0.29 ± 0.17 |
| GUAUAGCAAUAUUACGACUU | -0.268 ± 0.072 | -0.0307 ± 0.085 |
| GUAUAGCAAUAUUACGAGUA | -1.18 ± 0.19 | -1.77 ± 0.22 |
| GUAUAGCAAUAUUACGAGUG | -2.23 ± 0.15 | -2.47 ± 0.22 |
| GUAUAGCAAUAUUACGAUCG | -1.69 ± 0.33 | -0.878 ± 0.31 |
| GUAUAGCAAUAUUACGCAUU | -2 ± 0.17 | -2.28 ± 0.29 |
| GUAUAGCAAUAUUACGCUGG | -2.35 ± 0.17 | -1.01 ± 0.18 |
| GUAUAGCAAUAUUACGGGCG | -2.27 ± 0.17 | -0.207 ± 0.18 |
| GUAUAGCAAUAUUACGGGCU | -2.86 ± 0.17 | -1.38 ± 0.19 |
| GUAUAGCAAUAUUACGGGUU | -3.05 ± 0.29 | -2.07 ± 0.27 |

| Sequence | self-splicing fitness (ln) (30 °C) | self-splicing fitness (ln) (37 °C) |
| --- | --- | --- |
| GUAUAGCAAUAUUACGGUGA | -2.53 ± 0.25 | -0.645 ± 0.18 |
| GUAUAGCAAUAUUACGUAGG | -3.15 ± 0.16 | -1.47 ± 0.14 |
| GUAUAGCAAUAUUACGUAGU | -2.17 ± 0.096 | -1.26 ± 0.095 |
| GUAUAGCAAUAUUACGUCAG | -3.96 ± 0.35 | -1.08 ± 0.18 |
| GUAUAGCAAUAUUACGUGGC | -3.62 ± 0.33 | -2.09 ± 0.28 |
| GUAUAGCAAUAUUACGUGUA | -1.79 ± 0.2 | -1.92 ± 0.18 |
| GUAUAGCAAUAUUACGUUGA | -2.87 ± 0.21 | -1.41 ± 0.18 |
| GUCAAGCAAUAUUACGAAAA | -1.95 ± 0.41 | -2.53 ± 0.31 |
| GUCAAGCAAUAUUACGAACC | -3.76 ± 0.42 | – |
| GUCAAGCAAUAUUACGAAUU | -3.06 ± 0.18 | -1.82 ± 0.17 |
| GUCAAGCAAUAUUACGACGG | -4.06 ± 0.37 | -1.71 ± 0.34 |
| GUCAAGCAAUAUUACGAGCG | -2.72 ± 0.16 | -1.2 ± 0.18 |
| GUCAAGCAAUAUUACGAGUA | -3.43 ± 0.19 | -1.98 ± 0.15 |
| GUCAAGCAAUAUUACGAUCG | -3.39 ± 0.19 | -2.88 ± 0.23 |
| GUCAAGCAAUAUUACGAUGU | -1.75 ± 0.042 | -0.404 ± 0.055 |
| GUCAAGCAAUAUUACGCAGG | -4.19 ± 0.36 | -2.3 ± 0.3 |
| GUCAAGCAAUAUUACGCCCA | -1.4 ± 0.15 | -1.11 ± 0.14 |
| GUCAAGCAAUAUUACGCCGG | – | -0.94 ± 0.36 |
| GUCAAGCAAUAUUACGCUAU | -4.05 ± 0.17 | -3.81 ± 0.15 |
| GUCAAGCAAUAUUACGCUGC | – | -3.33 ± 0.27 |
| GUCAAGCAAUAUUACGGAAG | -3.05 ± 0.15 | -1.68 ± 0.17 |
| GUCAAGCAAUAUUACGGCGC | -0.751 ± 0.11 | -0.437 ± 0.14 |
| GUCAAGCAAUAUUACGGCUA | -1.28 ± 0.073 | -0.658 ± 0.066 |
| GUCAAGCAAUAUUACGGGGG | -4.02 ± 0.46 | -2.86 ± 0.34 |
| GUCAAGCAAUAUUACGGGUA | -2.91 ± 0.12 | -1.45 ± 0.076 |
